Measurements: patent publication US20230134571A1 (INTERNATIONAL AIDS VACCINE INITIATIVE, published 2023)

What was measured:
Test in all cases: cell-based or functional assay
[1] = biological target: HIV Env, isolate 20286961_C1_H8 (HIV)
[2] = biological target: HIV Env, isolate 6022.v7.c24 (HIV)
[3] = biological target: HIV Env, isolate 21283649 (HIV)
[4] = biological target: HIV Env, isolate 933.v4.c4 (HIV)
[5] = biological target: HIV Env, isolate 569-F1_37_10 (HIV)
[6] = biological target: HIV Env, isolate CA392_H2_6 (HIV)
[7] = biological target: HIV Env, isolate SO607_B6.9 (HIV)
[8] = biological target: HIV Env, isolate 21502011_F12_E2 (HIV)
[9] = biological target: HIV Env, isolate Ce2052_G10 (HIV)
[10] = biological target: HIV Env, isolate SO032_A2.8-1 (HIV)
[11] = biological target: HIV Env, isolate 0041.v3.c18 (HIV)
[12] = biological target: HIV Env, isolate 19252094_A5_G2 (HIV)
[13] = biological target: HIV Env, isolate CAP69.1.12_TA7.1 (HIV)
[14] = biological target: HIV Env, isolate 20104663_E11_D2 (HIV)
[15] = biological target: HIV Env, isolate 6631.v3.c10 (HIV)
[16] = biological target: HIV Env, isolate 722_G4_16 (HIV)
[17] = biological target: HIV Env, isolate CAP266.2.00_E9_h6 (HIV)
[18] = biological target: HIV Env, isolate So431_C1_1 (HIV)
[19] = biological target: HIV Env, isolate 704010042 (HIV)
[20] = biological target: HIV Env, isolate 21561324_D3_B5 (HIV)
[21] = biological target: HIV Env, isolate 234-F1-16-57 (HIV)
[22] = biological target: HIV Env, isolate CAP45.2.00.G3 (HIV)
[23] = biological target: HIV Env, isolate 6146.v7.c23 (HIV)
[24] = biological target: HIV Env, isolate 705010185 (HIV)
[25] = biological target: HIV Env, isolate ZM106F.PB9 (HIV)
[26] = biological target: HIV Env, isolate CT565_C7.48 (HIV)
[27] = biological target: HIV Env, isolate 556_F2_3_25 (HIV)
[28] = biological target: HIV Env, isolate 19157834_V1 (HIV)
[29] = biological target: HIV Env, isolate 20927783 (HIV)
[30] = biological target: HIV Env, isolate 3312_D6.2 (HIV)
[31] = biological target: HIV Env, isolate B005018-8_F6.3 (HIV)
[32] = biological target: HIV Env, isolate 541-F1_A7_2 (HIV)
[33] = biological target: HIV Env, isolate Ko870_C2_10 (HIV)
[34] = biological target: HIV Env, isolate 19314479_A2_5 (HIV)
[35] = biological target: HIV Env, isolate CH064.env (HIV)
[36] = biological target: HIV Env, isolate CAP323.2.00_B6.45 (HIV)
[37] = biological target: HIV Env, isolate CAP291.2.00_H2.15 (HIV)

B1: ePGDM9 (antibody, V domains shown)
VH: QAQLVQSGPEVRKPGTSVKVSCKNPGNTLTTYDLHWVRQVPGQGLQWMGWISHEGDKKVIVERFKAKVTIDWDRSTNTAYLQLSGLTSEDTAVYYCAKGSKHRLRDYALYDEDGALNWAVDVDYLANLEFWGQGTAVTVSS
VL: DIVLTQSPLSLSVTPGESASISCKSSQSLIHGDRNNYLAWYVQKPGRSPQLLIDLASERASGVPDRFSGSGSRKDFTLKISRVETEDVGTYYCMQGRESPWTFGQGTKVDIK
[1]
  IC50: 0.023 µg/mL
  IC80: > 50 µg/mL
[2]
  IC50: > 50 µg/mL
  IC80: > 50 µg/mL
[3]
  IC50: 1.55 µg/mL
  IC80: > 50 µg/mL
[4]
  IC50: > 50 µg/mL
  IC80: > 50 µg/mL
[5]
  IC50: > 50 µg/mL
  IC80: > 50 µg/mL
[6]
  IC50: 0.032 µg/mL
  IC80: 0.129 µg/mL
[7]
  IC50: 29.5 µg/mL
  IC80: > 50 µg/mL
[8]
  IC50: > 50 µg/mL
  IC80: > 50 µg/mL
[9]
  IC50: 0.001 µg/mL
  IC80: 0.005 µg/mL
[10]
  IC50: > 50 µg/mL
  IC80: > 50 µg/mL
[11]
  IC50: < 0.0006 µg/mL
  IC80: 0.001 µg/mL
[12]
  IC50: 0.001 µg/mL
  IC80: 0.003 µg/mL
[13]
  IC50: 0.01 µg/mL
  IC80: 0.039 µg/mL
[14]
  IC50: < 0.0006 µg/mL
  IC80: 0.001 µg/mL
[15]
  IC50: > 50 µg/mL
  IC80: > 50 µg/mL
[16]
  IC50: 0.198 µg/mL
  IC80: 0.585 µg/mL
[17]
  IC50: 0.008 µg/mL
  IC80: 0.037 µg/mL
[18]
  IC50: > 50 µg/mL
  IC80: > 50 µg/mL
[19]
  IC50: < 0.0006 µg/mL
  IC80: < 0.0006 µg/mL
[20]
  IC50: 0.004 µg/mL
  IC80: 0.038 µg/mL
[21]
  IC50: < 0.0006 µg/mL
  IC80: 0.002 µg/mL
[22]
  IC50: < 0.0006 µg/mL
  IC80: < 0.0006 µg/mL
[23]
  IC50: 0.019 µg/mL
  IC80: 0.249 µg/mL
[24]
  IC50: 0.706 µg/mL
  IC80: 2.15 µg/mL
[25]
  IC50: 0.007 µg/mL
  IC80: 0.024 µg/mL
[26]
  IC50: < 0.0006 µg/mL
  IC80: 0.086 µg/mL
[27]
  IC50: > 50 µg/mL
  IC80: > 50 µg/mL
[28]
  IC50: 31.7 µg/mL
  IC80: > 50 µg/mL
[29]
  IC50: 0.005 µg/mL
  IC80: 0.017 µg/mL
[30]
  IC50: 0.004 µg/mL
  IC80: 0.011 µg/mL
[31]
  IC50: < 0.0006 µg/mL
  IC80: 0.003 µg/mL
[32]
  IC50: 0.005 µg/mL
  IC80: 0.02 µg/mL
[33]
  IC50: 0.001 µg/mL
  IC80: 0.021 µg/mL
[34]
  IC50: < 0.0006 µg/mL
  IC80: 0.001 µg/mL
[35]
  IC50: 0.333 µg/mL
  IC80: 1.62 µg/mL
[36]
  IC50: 0.004 µg/mL
  IC80: 0.016 µg/mL
[37]
  IC50: 0.342 µg/mL
  IC80: 1.1 µg/mL
